Experimental data published in publication PMC8042174.
Where a chain is given by its changes, count along the chain named. In names and notes the source's numbering stands.

B1: pSer162-PDZ2 (133–300 aa) (domain or fragment)
chain: NENEPREADKSHPEQRELRPRLCTMKKGPSGYGFNLHSDKSKPGQFIRSVDPDSPAEASGLRAQDRIVEVNGVCMEGKQHGDVVSAIRAGGDETKLLVVDRETDEFFKKCRVIPSQEHLNGPLPVPFTNGEIQKENSREALAEAALESPRPALVRSASSDTSEELNSQ
modifications: phosphoserine at 162
B2: S162A-PDZ2 (133–300 aa) (domain or fragment)
chain: B1 chain with S30A
B3: recombinant full-length NHERF1 (natural protein)
chain: MSADAAAGAPLPRLCCLEKGPNGYGFHLHGEKGKLGQYIRLVEPGSPAEKAGLLAGDRLVEVNGENVEKETHQQVVSRIRAALNAVRLLVVDPETDEQLQKLGVQVREELLRAQEAPGQAEPPAAAEVQGAGNENEPREADKSHPEQRELRPRLCTMKKGPSGYGFNLHSDKSKPGQFIRSVDPDSPAEASGLRAQDRIVEVNGVCMEGKQHGDVVSAIRAGGDETKLLVVDRETDEFFKKCRVIPSQEHLNGPLPVPFTNGEIQKENSREALAEAALESPRPALVRSASSDTSEELNSQDSPPKQDSTAPSSTSSSDPILDFNISLAMAKERAHQKRSSKRAPQMDWSKKNELFSNL
B4: recombinant N1P2-GAGA (natural protein)
chain: B3 chain with Y164A, F166A
B5: recombinant N1P1-GAGA (natural protein)
chain: B3 chain with Y24A, F26A
B6: WT PDZ2 domain (133–300 aa) of NHERF1 (domain or fragment)
chain: B1 chain
B7: NHERF1 PDZ1 domain (1-140 aa), isolated (domain or fragment)
chain: MSADAAAGAPLPRLCCLEKGPNGYGFHLHGEKGKLGQYIRLVEPGSPAEKAGLLAGDRLVEVNGENVEKETHQQVVSRIRAALNAVRLLVVDPETDEQLQKLGVQVREELLRAQEAPGQAEPPAAAEVQGAGNENEPREA

Key:
[1] = target: FITC-labeled human GRK6A C-terminal 22 amino acid peptide, GRK6Act-22 (human); test: fluorescence polarisation; fluorescence anisotropy, direct saturation binding in solution; recombinant protein titrated to fixed FITC-GRK6Act-22 (0.4–1.0 μM); PBS pH 7.4, 0.1% BSA, 1 mM DTT, 23 °C; quadratic fit
[2] = target: FITC-labeled human GRK6A C-terminal 22 amino acid peptide, GRK6Act-22 (human); test: fluorescence polarisation; fluorescence anisotropy saturation binding in solution; increasing amounts of recombinant protein added to a fixed concentration of FITC-labeled GRK6Act-22 (0.4-1.0 uM); PBS pH 7.4, 0.1% BSA, 1 mM DTT; 23 °C; 96-well format; quadratic fit

Kd [1]	Kd [2]	Binder
26.1 µM	–	B1
43.4 µM	–	B2
5.3 µM	–	B3
3.6 µM	–	B4
> 100 µM	–	B5
51.3 µM	–	B6
–	6.6 µM	B7
